One experiment deals with T1, KIR3DL1 (UniProt P43629 22-444, limits assumed).
T1 construct: whole, on cells
Kind of experiment: HEK293 cell microarray.

The target of another experiment is T2, KIR3DL2 (UniProt P43630 22-455, limits assumed).
T2 construct: whole, on cells
Kind of experiment: HEK293 cell microarray.

Another experiment deals with T3, KIR2DL1 (UniProt P43626 22-348, limits assumed).
T3 construct: whole, on cells
Kind of experiment: HEK293 cell microarray.

For a further experiment, the target named is T4, KIR2DL2 (UniProt P43627 22-348, limits assumed).
T4 construct: whole, on cells
T4 sequence (P43627 22-348 limits assumed): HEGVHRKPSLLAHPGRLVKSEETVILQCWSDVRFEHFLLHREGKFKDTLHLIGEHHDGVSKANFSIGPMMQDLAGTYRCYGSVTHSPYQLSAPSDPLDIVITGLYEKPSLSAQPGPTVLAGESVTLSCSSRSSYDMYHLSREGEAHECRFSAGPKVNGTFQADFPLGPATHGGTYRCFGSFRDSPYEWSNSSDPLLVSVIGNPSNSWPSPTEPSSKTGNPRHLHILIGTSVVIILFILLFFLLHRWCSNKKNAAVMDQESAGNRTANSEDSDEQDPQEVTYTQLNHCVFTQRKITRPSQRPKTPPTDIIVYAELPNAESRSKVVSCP
Kind of experiment: HEK293 cell microarray.

Another experiment concerns the target T5, KIR2DL3 (UniProt P43628 22-341, limits assumed).
T5 construct: whole, on cells
Kind of experiment: HEK293 cell microarray.

For another experiment, the target named is T6, KIR2DL4 (UniProt Q99706 22-377, limits assumed).
T6 construct: whole, on cells
T6 sequence (Q99706 22-377 limits assumed): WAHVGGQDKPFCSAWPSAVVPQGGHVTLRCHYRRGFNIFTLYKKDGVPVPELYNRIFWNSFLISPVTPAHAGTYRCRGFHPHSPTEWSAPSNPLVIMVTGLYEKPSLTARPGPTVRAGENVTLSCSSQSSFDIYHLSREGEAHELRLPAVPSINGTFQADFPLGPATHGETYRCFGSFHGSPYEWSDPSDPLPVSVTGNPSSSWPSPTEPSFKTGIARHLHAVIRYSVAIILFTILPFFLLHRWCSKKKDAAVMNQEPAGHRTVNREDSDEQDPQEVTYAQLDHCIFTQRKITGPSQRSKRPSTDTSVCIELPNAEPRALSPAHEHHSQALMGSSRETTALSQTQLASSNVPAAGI
Kind of experiment: HEK293 cell microarray.

Another experiment has as its target T7, KIR2DS1 (UniProt Q14954 22-304, limits assumed).
T7 construct: whole, on cells
Kind of experiment: HEK293 cell microarray.

In a further experiment the target is T8, KIR2DS2 (UniProt P43631 22-304, limits assumed).
T8 construct: whole, on cells
T8 sequence (P43631 22-304 limits assumed): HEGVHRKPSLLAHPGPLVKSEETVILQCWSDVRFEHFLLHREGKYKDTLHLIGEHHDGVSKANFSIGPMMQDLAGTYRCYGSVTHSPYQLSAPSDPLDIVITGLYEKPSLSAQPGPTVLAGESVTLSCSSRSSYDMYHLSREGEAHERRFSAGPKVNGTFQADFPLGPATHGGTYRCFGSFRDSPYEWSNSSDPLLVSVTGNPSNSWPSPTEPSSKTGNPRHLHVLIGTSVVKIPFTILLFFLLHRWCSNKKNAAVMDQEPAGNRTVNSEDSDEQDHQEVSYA
Kind of experiment: HEK293 cell microarray.

The target of the next experiment is T9, KIR2DS3 (UniProt Q14952 22-304, limits assumed).
T9 construct: whole, on cells
T9 sequence (Q14952 22-304 limits assumed): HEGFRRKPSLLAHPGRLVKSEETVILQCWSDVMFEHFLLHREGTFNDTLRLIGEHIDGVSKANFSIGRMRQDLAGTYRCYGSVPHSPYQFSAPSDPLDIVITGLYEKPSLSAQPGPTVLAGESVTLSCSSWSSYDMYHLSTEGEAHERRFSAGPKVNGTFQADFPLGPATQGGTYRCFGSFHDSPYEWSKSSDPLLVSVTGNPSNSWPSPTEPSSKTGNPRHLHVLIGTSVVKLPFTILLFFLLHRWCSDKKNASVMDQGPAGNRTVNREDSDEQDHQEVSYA
Kind of experiment: HEK293 cell microarray.

The target in the next experiment is T10, KIR2DS5 (UniProt Q14953 22-304, limits assumed).
T10 construct: whole, on cells
T10 sequence (Q14953 22-304 limits assumed): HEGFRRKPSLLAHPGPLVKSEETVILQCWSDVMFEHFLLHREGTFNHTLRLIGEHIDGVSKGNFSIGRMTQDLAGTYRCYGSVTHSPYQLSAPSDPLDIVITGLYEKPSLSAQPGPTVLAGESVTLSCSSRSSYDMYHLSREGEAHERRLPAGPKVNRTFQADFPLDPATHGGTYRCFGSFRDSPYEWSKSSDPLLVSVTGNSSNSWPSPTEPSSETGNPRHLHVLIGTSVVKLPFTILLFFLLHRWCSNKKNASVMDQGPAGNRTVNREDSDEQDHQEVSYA
Kind of experiment: HEK293 cell microarray.

For the next experiment, the target named is T11, KIR3DS1 (UniProt Q14943 22-382, limits assumed).
T11 construct: whole, on cells
T11 sequence (Q14943 22-382 limits assumed): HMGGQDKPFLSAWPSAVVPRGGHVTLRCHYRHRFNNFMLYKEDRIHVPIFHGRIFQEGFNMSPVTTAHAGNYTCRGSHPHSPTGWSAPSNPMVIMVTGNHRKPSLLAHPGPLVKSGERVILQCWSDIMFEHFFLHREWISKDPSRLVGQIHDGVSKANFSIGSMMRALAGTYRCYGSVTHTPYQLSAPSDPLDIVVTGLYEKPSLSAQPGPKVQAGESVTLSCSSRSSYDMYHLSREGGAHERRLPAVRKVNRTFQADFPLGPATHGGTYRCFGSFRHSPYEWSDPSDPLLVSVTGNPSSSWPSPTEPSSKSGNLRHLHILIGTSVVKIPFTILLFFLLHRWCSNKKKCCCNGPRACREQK
Kind of experiment: HEK293 cell microarray.

In another experiment the target is T12, KIR2DL5A (UniProt Q8N109 22-375, limits assumed).
T12 construct: whole, on cells
T12 sequence (Q8N109 22-375 limits assumed): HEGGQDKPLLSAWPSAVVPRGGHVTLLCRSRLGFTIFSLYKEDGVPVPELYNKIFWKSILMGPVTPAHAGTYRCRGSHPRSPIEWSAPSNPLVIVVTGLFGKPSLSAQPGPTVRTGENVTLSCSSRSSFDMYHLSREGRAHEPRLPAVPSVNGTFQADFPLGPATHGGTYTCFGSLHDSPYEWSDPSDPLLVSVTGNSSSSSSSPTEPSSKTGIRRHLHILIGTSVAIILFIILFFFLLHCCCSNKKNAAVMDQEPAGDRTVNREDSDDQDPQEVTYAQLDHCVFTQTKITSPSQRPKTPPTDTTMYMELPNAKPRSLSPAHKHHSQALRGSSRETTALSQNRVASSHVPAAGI
Kind of experiment: HEK293 cell microarray, hybridoma supernatant. Here is the method:
In Table 4, replicate microarray slides expressing the KIR family cDNA panel (as in FIG. 1A, FIG. 2B, and FIG. 2C) were fixed and blocked with buffer containing PBS/0.5% BSA and incubated for 1 hour at room temperature with individual KIR3DL3 mAb hybridoma supernatants at 1:5, 1:25 and 1:250 dilutions in PBS/0.1% BSA. Cell arrays were washed with PBS and incubated for 1 hour at room temperature in PBS/0.1% BSA containing AF647-conjugated goat anti-mouse IgG (H+L) (Life Technologies, A21235). Slides were washed with PBS, dried, and imaged for ZsGreen1 and AF647 fluorescence.

T3 sequence (P43626 22-348 limits assumed): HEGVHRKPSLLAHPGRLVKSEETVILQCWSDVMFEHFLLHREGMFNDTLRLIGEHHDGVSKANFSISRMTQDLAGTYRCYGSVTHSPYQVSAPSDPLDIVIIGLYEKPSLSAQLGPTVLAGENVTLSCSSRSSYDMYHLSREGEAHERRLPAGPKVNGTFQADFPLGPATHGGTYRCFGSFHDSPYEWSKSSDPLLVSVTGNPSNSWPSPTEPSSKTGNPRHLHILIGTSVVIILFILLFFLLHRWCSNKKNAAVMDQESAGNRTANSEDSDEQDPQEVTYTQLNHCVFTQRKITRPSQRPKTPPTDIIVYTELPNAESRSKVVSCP
T1 sequence (P43629 22-444 limits assumed): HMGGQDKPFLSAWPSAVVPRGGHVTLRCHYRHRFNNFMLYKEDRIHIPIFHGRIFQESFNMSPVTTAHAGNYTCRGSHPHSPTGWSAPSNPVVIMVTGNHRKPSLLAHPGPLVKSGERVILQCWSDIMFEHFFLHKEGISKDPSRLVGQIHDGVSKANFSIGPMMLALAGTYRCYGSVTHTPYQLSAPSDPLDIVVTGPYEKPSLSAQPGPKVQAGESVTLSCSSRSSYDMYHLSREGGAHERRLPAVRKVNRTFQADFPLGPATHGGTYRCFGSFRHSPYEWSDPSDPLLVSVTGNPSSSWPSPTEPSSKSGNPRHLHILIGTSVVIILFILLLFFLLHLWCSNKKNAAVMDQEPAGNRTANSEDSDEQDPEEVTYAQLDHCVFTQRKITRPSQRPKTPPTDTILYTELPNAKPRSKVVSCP
T2 sequence (P43630 22-455 limits assumed): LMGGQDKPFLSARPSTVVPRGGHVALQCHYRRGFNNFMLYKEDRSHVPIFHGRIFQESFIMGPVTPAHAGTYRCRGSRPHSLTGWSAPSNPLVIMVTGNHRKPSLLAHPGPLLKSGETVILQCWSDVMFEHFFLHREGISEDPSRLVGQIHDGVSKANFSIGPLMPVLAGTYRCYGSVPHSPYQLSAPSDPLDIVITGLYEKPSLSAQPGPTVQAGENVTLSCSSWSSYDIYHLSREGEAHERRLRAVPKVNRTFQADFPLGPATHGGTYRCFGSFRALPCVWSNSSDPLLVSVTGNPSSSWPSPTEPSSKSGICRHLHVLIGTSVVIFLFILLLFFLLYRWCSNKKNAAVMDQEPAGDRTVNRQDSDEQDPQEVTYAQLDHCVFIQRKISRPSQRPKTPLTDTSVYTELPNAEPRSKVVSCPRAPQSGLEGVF
T7 sequence (Q14954 22-304 limits assumed): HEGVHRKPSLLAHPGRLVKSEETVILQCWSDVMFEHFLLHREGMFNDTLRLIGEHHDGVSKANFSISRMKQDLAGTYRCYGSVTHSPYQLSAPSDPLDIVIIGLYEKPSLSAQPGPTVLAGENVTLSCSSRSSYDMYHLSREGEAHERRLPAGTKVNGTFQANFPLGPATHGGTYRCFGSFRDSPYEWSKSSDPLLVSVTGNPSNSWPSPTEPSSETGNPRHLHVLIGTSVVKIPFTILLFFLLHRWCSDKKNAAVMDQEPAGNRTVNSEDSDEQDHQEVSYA
T5 sequence (P43628 22-341 limits assumed): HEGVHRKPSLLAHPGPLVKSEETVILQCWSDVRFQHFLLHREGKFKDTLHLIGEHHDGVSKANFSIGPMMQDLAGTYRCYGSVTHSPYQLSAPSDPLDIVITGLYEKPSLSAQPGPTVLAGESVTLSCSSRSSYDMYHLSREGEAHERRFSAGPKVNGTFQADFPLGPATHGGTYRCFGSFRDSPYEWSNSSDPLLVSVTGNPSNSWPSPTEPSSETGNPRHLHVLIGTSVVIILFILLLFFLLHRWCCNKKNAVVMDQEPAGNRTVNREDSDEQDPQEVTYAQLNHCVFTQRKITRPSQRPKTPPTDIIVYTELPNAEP

B1: KIR3DL3 mAb 574.2.8C2.12.3.10 (antibody, IgG2a, V domains shown)
VH: KVQLQQSGAELVRPGTSVKVSCKASGYAFTNYLIEWVKQRPGQGLEWIGVINPGSGGTNDNEKFRDKATLTADKSSSTAYMQLSSLTSDDSAVYFCARGNYYGTTDWYFDVWGAGTTVTVSS
VL: QIVLTQSPAIMSASLGERVTMTCTASASVSSSSLHWYQQKPGSPPKFWIYSTTNLASGVPTRFSGSGSGTSYSLTISNMEAEDAATYYCHQYHRSPPTFGGGTKLEIK
notes: Mouse hybridoma antibody, IgG2a; only variable domains given; also called AVS-3706
B1: the binding result in the experiment with KIR3DL1 was “no binding (tested: supernatant 1:5, 1:25, 1:250)”; with KIR3DL2, “no binding (tested: supernatant 1:5, 1:25, 1:250)”; in the experiment with KIR2DL1, “no binding (tested: supernatant 1:5, 1:25, 1:250)”; with KIR2DL2, “no binding (tested: supernatant 1:5, 1:25, 1:250)”; with KIR2DL3 it was “no binding (tested: supernatant 1:5, 1:25, 1:250)”; in the experiment with KIR2DL4 it was “no binding (tested: supernatant 1:5, 1:25, 1:250)”. The binding result in the experiment with KIR2DS1 is “no binding (tested: supernatant 1:5, 1:25, 1:250)”; in the experiment with KIR2DS2 it was “no binding (tested: supernatant 1:5, 1:25, 1:250)”; in the experiment with KIR2DS3 it was “no binding (tested: supernatant 1:5, 1:25, 1:250)”; with KIR2DS5, “no binding (tested: supernatant 1:5, 1:25, 1:250)”; with KIR3DS1 it was “no binding (tested: supernatant 1:5, 1:25, 1:250)”; with KIR2DL5A, “binds”.
